Target: T1, Ncc ligated to ZHk (P. furiosus, UniProt P58301 1-386; P58301 390-497)
T1 construct: Rad50 of P. furiosus, aa 1-386 (from Ncc); OaAEP1 ligation scar; replaces the natural 'LGD' (N from Ncc, GL from the N-terminus of ZHk); Rad50 of P. furiosus, Zn Hook domain, aa 390-497 (from ZHk); The ZHk part is uniformly deuterated and ILVM side-chain methyl labelled (isotopes only); also called Ncc-ZHk; Ncc-ZnHk; source: OaAEP1 ligation of Ncc (E. coli) to ZHk (E. coli, deuterated minimal …)
T1 chain: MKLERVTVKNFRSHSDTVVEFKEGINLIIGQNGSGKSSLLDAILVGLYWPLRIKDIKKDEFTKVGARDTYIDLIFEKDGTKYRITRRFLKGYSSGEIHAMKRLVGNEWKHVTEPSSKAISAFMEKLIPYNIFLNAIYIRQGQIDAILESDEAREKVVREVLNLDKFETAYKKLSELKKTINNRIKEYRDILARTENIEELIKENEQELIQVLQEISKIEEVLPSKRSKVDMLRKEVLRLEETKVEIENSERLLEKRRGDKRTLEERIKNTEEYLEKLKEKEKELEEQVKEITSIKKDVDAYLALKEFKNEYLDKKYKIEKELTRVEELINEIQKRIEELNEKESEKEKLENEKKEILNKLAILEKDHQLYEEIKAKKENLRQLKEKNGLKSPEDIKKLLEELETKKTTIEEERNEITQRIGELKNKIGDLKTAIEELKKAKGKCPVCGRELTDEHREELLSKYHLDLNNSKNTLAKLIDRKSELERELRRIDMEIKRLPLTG
Test: co-purification on a Ni affinity column; purified ligation mixture after TEV cleavage, separated on a HisTrap HP column; a 6His tag remains only on the C-terminus of ZHk in Ncc-ZHk; unreacted products in the flowthrough, target in the elution
Conditions: both partners purified

binding result: binds
B1: Pf Rad50 C-Terminal coiled-coil-NBD (aa 503 – 882) after TEV cleavage (domain or fragment, P. furiosus)
chain: GTVAEQIRSIEEELNVVNLEKIEKNATEYEKLLEELRTLEGRIRGLAEDLKKLAPLEKKLAALIHKKQELEKELKELNTKLESFGFKSVEDLDSKLRELEEIYKRYLTLLNSKKELEITQREIAKAKETLEMSFEELAEVEADIERIEKKLSQLKQKYNEEEYKKKREEKEELEKELARLEAQKKELEKRRDTIKSTLEKLKAEKENRERVKKEIKDLEKAKDFTEELIEKVKKYKALAREAALSKIGELASEIFAEFTEGKYSEVVVRAEENKVRLFVVWEGKERPLTFLSGGERIALGLAFRLAMSLYLAGEISLLILDEPTPYLDEERRRKLITIMERYLKKIPQVILVSHDEELKDAADHVIRISLENGSSKVEVVS
notes: N-terminal Gly exposed by TEV cleavage; replaces residue 502 of Rad50; also called ccC; TEV-cleaved ccC; source: E. coli BL21 Codon+, co-expressed with Ncc, purified, tag removed with TEV protease; not shown: His6 (MK-HHHHHH-ENLYFQ, with TEV cleavage site), N-terminal, cleaved

Source: article PMC10149453, “Three segment ligation of a 104 kDa multi-domain protein by SrtA and OaAEP1” (Journal of Biomolecular Nmr, 2022)
